Substitutions are numbered along the chain they refer to. Names and notes keep the numbering of the source.
Tests used:
[1] = target: the molecule itself; assay: SEC; cleaved MDM2 variants after removal of the GST-tag on HiLoad 16/600 Superdex 75; oligomeric state by comparison with molecular weight markers
[2] = target: the molecule itself; assay: SEC; GST-MDM2 variants (3 mg/mL) incubated with 1:10 TEV for 16-20 h at 4 °C; soluble fraction of the cleaved products on Superdex 75 Increase 10/300; comparison with molecular weight markers and SDS-PAGE
[3] = target: T1, UbcH5B–Ub, isopeptide-linked E2–Ub conjugate (UbcH5B S22R C85K) (human | , UniProt P62837 1-147; P0CG48 1-76, S22R | C85K, lysine 85 (C85K) isopeptide-linked to the C-terminus of Ub | C-terminus isopeptide-linked to lysine 85 of UbcH5B); assay: SPR; GST-tagged MDM2 variants captured on a CM-5 chip with coupled anti-GST antibody; serial dilution of UbcH5B–Ub as analyte; Biacore T200, 25 °C; 25 mM Tris-HCl pH 7.6, 150 mM NaCl, 1 mM DTT, 0.005% Tween-20; two technical replicates; conditions: both partners purified
T1 construct: ubiquitin (Ub), the cut product of the ubiquitin precursor; Ub was cloned with an N-terminal 6xHis-tag, a TEV cleavage site and a GGS linker; also called E2(UbcH5B)–Ub; source: E. coli BL21(DE3) GOLD, purified; conjugate generated as described previously

B1: Danio rerio MDM2 407-C (MDM2^z), GST-tag removed (domain or fragment, Danio rerio (zebrafish), UniProt O42354 377-445, looked up)
chain: FNSLEACLPATCLEPCVICQSRPKNGCIVHGRTGHLMACYTCAKKLKNRNKLCPVCREPIQSVVLTYMS
notes: MDM2, Danio rerio (zebrafish), residues 407 to the C-terminus; 407-417 correspond to 423-433 of human MDM2, which implies a numbered chain of about 475 residues; also called zebrafish MDM2 407-C; source: E. coli BL21(DE3) GOLD, GST-tag released with TEV, Superdex 75 gel filtration; not shown: GST, N-terminal, cleaved
- stoichiometry N [1]: 2

B2: MDM2^h A434S (human MDM2 419-C A434S), GST-tag removed (domain or fragment, UniProt Q00987 419-491, looked up)
chain: TQDKEESVESSLPLNSIEPCVICQGRPKNGCIVHGKTGHLMACFTCAKKLKKRNKPCPVCRQPIQMIVLTYFP
notes: MDM2, human, residues 419 to the C-terminus, with A434S; source: E. coli BL21(DE3) GOLD, GST-MDM2 treated with TEV, soluble cleaved products on analytical SEC; not shown: GST, N-terminal, cleaved
- binding result [2]: binds

B3: GST-tagged human MDM2 419-C (MDM2^h) (domain or fragment, UniProt Q00987 419-491, looked up)
chain: B2 chain with S16A
notes: MDM2, human, residues 419 to the C-terminus (RING domain with the preceding region); pGEX-4T1, N-terminal GST-tag followed by a TEV cleavage site; GST kept for SPR and ubiquitination assays; also called GST-MDM2^h; wild-type MDM2^h; source: E. coli BL21(DE3) GOLD, purified (glutathione Sepharose, gel filtration); not shown: GST, N-terminal, kept
- Kd [3]: 13.5 ± 0.6 µM

B4: human MDM2 419-C G443T (MDM2^hGT), GST-tag removed (domain or fragment, UniProt Q00987 419-491, looked up)
chain: B2 chain with S16A, G25T
notes: MDM2, human, residues 419 to the C-terminus, with G443T; also called MDM2^h G443T; MDM2-G443T; source: E. coli BL21(DE3) GOLD, GST-tag released with TEV, Superdex 75 gel filtration; not shown: GST, N-terminal, cleaved
- stoichiometry N [2]: 2

B5: GST-tagged human MDM2 419-C G443T (MDM2^hGT) (domain or fragment, UniProt Q00987 419-491, looked up)
chain: B2 chain with S16A, G25T
notes: MDM2, human, residues 419 to the C-terminus, with G443T; pGEX-4T1, N-terminal GST-tag followed by a TEV cleavage site; GST kept for SPR and ubiquitination assays; also called GST-MDM2^hGT; MDM2^h G443T; source: E. coli BL21(DE3) GOLD, purified (glutathione Sepharose, gel filtration); not shown: GST, N-terminal, kept
- Kd [3]: 16.3 ± 1.9 µM

B6: MDM2^h I435V (human MDM2 419-C I435V), GST-tag removed (domain or fragment, UniProt Q00987 419-491, looked up)
chain: B2 chain with S16A, I17V
notes: MDM2, human, residues 419 to the C-terminus, with I435V; source: E. coli BL21(DE3) GOLD, GST-MDM2 treated with TEV, soluble cleaved products on analytical SEC; not shown: GST, N-terminal, cleaved
- binding result [2]: binds

B7: MDM2^h P491S (human MDM2 419-C P491S), GST-tag removed (domain or fragment, UniProt Q00987 419-491, looked up)
chain: B2 chain with S16A, P73S
notes: MDM2, human, residues 419 to the C-terminus, with P491S; source: E. coli BL21(DE3) GOLD, GST-MDM2 treated with TEV, soluble cleaved products on analytical SEC; not shown: GST, N-terminal, cleaved
- binding result [2]: binds
